In article PMC12823420:

Key:
UAP56 = UAP56 (Homo sapiens, UniProt Q13838 1-428); assay: GCI; 1 mM ATP; RNA immobilized; GCI: 25 mM HEPES pH 7.9, 50 mM KCl, 1 mM MgCl2, 1 mM TCEP, 1 mM ATP, 25 C; AdML pull-down: 20 mM HEPES pH 7.9, 100 mM KCl, 2 mM MgCl2, 5% glycerol, 0.1% Igepal, 1 mM AMP-PNP, RT; unclamping: same with 40 mM KCl, 500 mM KCl washes; details: protein: recombinant; otherwise unlabelled; single strand
UAP56-UCM-1 fusion = UAP56-UCM-1 fusion (Homo sapiens, UniProt Q13838 1-428+P82979:82-115, internal_change); assay: as above; details: protein: recombinant; tags: 10xHis; otherwise unlabelled; single strand

Work on UUUUUUUUUUUUUUU (ssRNA) [15U RNA] yielded a Kd (UAP56) of 780 ± 90 nM and a Kd (UAP56-UCM-1 fusion) of 270 ± 60 nM.
